Assay results reported in paper PMC2897912 (Journal of immunology (Baltimore, Md. : 1950), 2010).

Target: T1, IL-17RC-FL (murine IL-17RC, full length, unspliced, C-terminal Myc tag) (mouse, UniProt Q8K4C2 22-698)
T1 sequence (looked up): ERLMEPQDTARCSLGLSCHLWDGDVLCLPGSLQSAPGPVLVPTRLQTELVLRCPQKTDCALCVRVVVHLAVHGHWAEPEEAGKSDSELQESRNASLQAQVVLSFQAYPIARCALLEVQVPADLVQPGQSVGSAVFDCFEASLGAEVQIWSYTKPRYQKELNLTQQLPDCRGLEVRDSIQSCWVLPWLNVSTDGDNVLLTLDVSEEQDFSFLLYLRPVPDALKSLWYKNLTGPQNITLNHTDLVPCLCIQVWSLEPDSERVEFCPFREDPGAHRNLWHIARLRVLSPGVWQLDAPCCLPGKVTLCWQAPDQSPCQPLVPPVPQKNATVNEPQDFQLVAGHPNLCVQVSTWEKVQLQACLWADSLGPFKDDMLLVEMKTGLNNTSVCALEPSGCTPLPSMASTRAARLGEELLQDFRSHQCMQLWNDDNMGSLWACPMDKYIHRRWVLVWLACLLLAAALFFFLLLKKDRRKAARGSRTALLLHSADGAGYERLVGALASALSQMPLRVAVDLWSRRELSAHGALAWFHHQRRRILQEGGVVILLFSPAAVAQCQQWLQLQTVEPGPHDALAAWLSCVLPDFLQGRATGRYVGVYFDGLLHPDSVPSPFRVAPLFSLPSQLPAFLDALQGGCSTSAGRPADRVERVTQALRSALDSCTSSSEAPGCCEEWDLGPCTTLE
Assay: co-IP

B1: CFP-tagged murine Act1, larger phosphorylated isoform (phospho-Act1) (natural protein, mouse, UniProt Q8N7N6 1-555, looked up)
chain: MNRSIPVEVDESEPFPSQLLKPIPEYSPEEELEPPAPNTRNMAPSSLSVLQCPPLKLANHQPVSQQVTCLRAKVLEEGEASFFRRHPELGKDISSCSSGASEPESELGALPPEHRFTLTEKRNRWLGSQLSAASPDTGHESDKSDPSLPNALADSFSGGQEMMPRPRPRPGPHRHRAAPDVPTIDTGYDSQPQDVLGIRQLERPLPLTSSCYLQDLPGPLRSRELPPQFELERYPMNAQLLPPHPSPQAPWNCQYYCPGGPYHHQVPHGHGYPPAAAYQQVLQPALPGQVLPGARARGPRPVQKVILNDSSPQDQEERPAQRDFSFPRLPRDQLYRPPSNGVEAPEESLDLPAELRPHGPQAPSLAAVPRPPSNPLARGTLRTSNLPEELRKVFITYSMDTAMEVVKFVNFLLVNGFQTAIDIFEDRIRGIDIIKWMERYLRDKTVMIIVAISPKYKQDVEGAESQLDEDEHGLHTKYIHRMMQIEFISQGSMNFRFIPVLFPNAKKEHVPTWLQNTHVYSWPKNKKNILLRLLREEEYVAPPRGPLPTLQVVPL
modifications: phosphorylated (removed by shrimp alkaline phosphatase; sites not stated)
fold induction of co-precipitated phospho-Act1 over the 0 time point: ~6 fold
